We go through 84 variants from the RNAGym collection of RNA variant scans (doi:10.1073/pnas.2313332121).

The chains are these.
B1: TPR t1 (parent)
chain: GACCAAUCUGCCCUCAGAGCUCGAGAACAUCUUCGGAUGCAGAGGAGGCAGGCUUCGGUGGCGCGAUAGCGCCAACGUCCUCAACCUCCAAUGCAUCCCACCACAUGAUGAUGCCUGAAGAGCCUUGGUUUUUUG

Variants of B1 are the subject of this series. Briefly: polymerase ribozyme fitness, log enrichment relative to wild type (log ratio); higher = more active; in vitro selection for triplet polymerase activity. In a few lines: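 A single round of triplicate in vitro selection, including frozen incubation at −7 °C, was applied to PCR-built, transcribed mutant libraries of each subunit of a heterodimeric triplet polymerase ribozyme. Illumina sequencing of input and output libraries retained genotypes with ≥10 input reads and ≥1 read per output. Fitness is the base-2 logarithm of genotype enrichment divided by wild-type enrichment, from inverse-variance-weighted replicate averages.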
With U59A G128C, the “polymerase ribozyme fitness (log ratio)” value is -2.5.
In the case of G57U C62G A121G U130A it was -0.352; in that of U59C U96C, -0.447.
In the case of G58U C73U it was -0.0574.
With G57U G77C U130G, the “polymerase ribozyme fitness (log ratio)” value was -2.56.
In the case of G58C C86A C89G it was -4.05; in that of G58C C82G U87G G93C C123A, -0.69.
For U59C U92G C114G U125G the value was -4.63; for U59G A90U, -0.957; for G57A U87C, -1.14.
In the case of G58C G110C A121U, the “polymerase ribozyme fitness (log ratio)” value is -4.05.
For U59A G77U G117U the value was -2.87; for U59C A119G, 0.816; for G57C U81C, 0.391.
G58C G63C G128A: the “polymerase ribozyme fitness (log ratio)” value is -1.77.
For U59C U109C C114A the value was -6.67; for G57C C97G, -4.65.
As to G57C C97U, the “polymerase ribozyme fitness (log ratio)” value was -0.494.
On to G58A G71U C79A, for which the “polymerase ribozyme fitness (log ratio)” value was -1.79.
Regarding G60A A66U, the “polymerase ribozyme fitness (log ratio)” value is -1.29.
For U59A C124A the value was 1.62; for U59C A84G, -1.4; for G58C G60U A118G, -0.24.
Regarding G58A U125G, the “polymerase ribozyme fitness (log ratio)” value is -0.683.
For G58C C72G A121U the value was 1.78; for G57U G110U, -1.8.
In the case of G58C C80A it was -3.5; in that of U59G C99U U106A, -1.43.
For the variant U59A C70U U125A U133A, the “polymerase ribozyme fitness (log ratio)” value is -1.97.
For the variant G58C C101G U112C U129G, the “polymerase ribozyme fitness (log ratio)” value is -1.34.
For G57C C99U A118G the value was -4.32.
In the case of U59G G63A U87C C114U it was -4.39; in that of G57C G110U G120U, -4.33.
U59G A111C: the “polymerase ribozyme fitness (log ratio)” value amounted to 0.213.
In the case of G58C C73G C80U C102A G113A, the “polymerase ribozyme fitness (log ratio)” value is -5.77.
With U59C C64U C82G C94U, the “polymerase ribozyme fitness (log ratio)” value was -1.7.
Take U59C G127U: the “polymerase ribozyme fitness (log ratio)” value is -0.462.
As for G57U C70G C124G, the “polymerase ribozyme fitness (log ratio)” value was -2.06.
For G58C C101G C114A the value was -3.77.
In the case of U59A A74C C82A G93C it was -1.19.
With G57U C62U U81A, the “polymerase ribozyme fitness (log ratio)” value was -0.351.
Turning to G58C G69A C123A, the “polymerase ribozyme fitness (log ratio)” value was -3.42.
As for G57U C123U, the “polymerase ribozyme fitness (log ratio)” value came to 0.41.
As for G57C G61A G120A, the “polymerase ribozyme fitness (log ratio)” value stood at 0.501.
In the case of U59C U78G, the “polymerase ribozyme fitness (log ratio)” value is -0.0388.
U59C C82A C88G: the “polymerase ribozyme fitness (log ratio)” value is -2.83.
In the case of G58A G60A it was -0.506; in that of G57C G135U, -0.876.
Consider U59G U130G, for which the “polymerase ribozyme fitness (log ratio)” value was -0.605.
As for U59A G60A, the “polymerase ribozyme fitness (log ratio)” value was determined as 0.122.
For G58C C102A the value was -2.66; for G60A C80A C85G C98U, -5.64.
Regarding U59C U129C, the “polymerase ribozyme fitness (log ratio)” value was -1.12.
In the case of U59G G61A, the “polymerase ribozyme fitness (log ratio)” value is -2.76.
In the case of G60A C80U it was -1.64; in that of G57C U87A, -1.1; in that of U59C G120A G135U, -0.46.
G57U G58C: the “polymerase ribozyme fitness (log ratio)” value is -1.12.
For G58A A84U U133A the value was -0.154; for G57U G69U, -0.378; for G57C G60U A100U U130G, -0.0419.
For G57U C70U C76G U131C the value was -0.726; for G58C U129G, -0.485; for G57U U125A, -0.415.
As for U59C A108G, the “polymerase ribozyme fitness (log ratio)” value is -2.19.
Regarding U59G C124U, the “polymerase ribozyme fitness (log ratio)” value turned out to be 1.25.
In the case of U59G C82U G93U U96C C123U it was -0.453; in that of G58C C85A, 0.0552; in that of G57U U78G C114U A118U, -3.81.
On to U59C G128U, for which the “polymerase ribozyme fitness (log ratio)” value was -2.04.
U59G G60A C70G C115A A121C: the “polymerase ribozyme fitness (log ratio)” value was -4.99.
For U59G C85U C115A the value was -0.695; for G58A U129C, -0.222.
For the variant U59A U81A A119U, the “polymerase ribozyme fitness (log ratio)” value is -0.551.
As to G60A C80A C88A, the “polymerase ribozyme fitness (log ratio)” value was -3.61.
Consider U59G C70U C101A, for which the “polymerase ribozyme fitness (log ratio)” value is -2.5.
In the case of G58C C80G C88A it was -6.49; in that of U59C A91C G120C U133C G135U, -0.803.
For G57U C85A the value was -2.14; for G58A C62A, -2.66.
For G58C C124A the value was 1.82; for G57C A91C, -0.77.
On to U59A A66C C124A, for which the “polymerase ribozyme fitness (log ratio)” value amounted to 0.00699.
Consider U59G C73A C88A, for which the “polymerase ribozyme fitness (log ratio)” value was -2.15.
